Substitutions are numbered along the chain they refer to. Names and notes keep the numbering of the source. Values belong to the binder of their own block, whether it stands above or below them.
How the values were obtained:
[1] = target: T1, circularly permuted human TfR apical domain (human); assay: SPR, supernatant, anti-Fab capture
T1 construct: TfR residues 326-379 stand N-terminal to 194-296, loop 297-325 deleted; also called huTfR Apical Domain
T1 chain: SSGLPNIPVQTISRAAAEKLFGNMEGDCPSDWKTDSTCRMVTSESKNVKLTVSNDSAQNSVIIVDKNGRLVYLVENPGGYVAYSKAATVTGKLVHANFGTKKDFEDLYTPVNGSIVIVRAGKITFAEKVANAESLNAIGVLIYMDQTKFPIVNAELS
Experimental: (§1) Clones were expressed in HEK293 cells. Supernatants were captured for SPR by GE Healthcare anti-human Fab capture kit and the affinity to human and cyno TfR apical domain was measured (Table 30). The clones in Table 30 were bivalent and each TfR-binding Fc polypeptide also contained P329G and LALA mutations.

[2] = target: T2, circularly permuted cyno TfR apical domain (cynomolgus monkey); assay: SPR, supernatant, anti-Fab capture
T2 construct: same design as the human construct; also called cyTfR Apical Domain; cynomolgus TfR apical domain
T2 chain: T1 chain with R39K, S45N, N47S, R69G, Y108D, T109S, N153K, E155D
Experimental: as §1

B1: 6.5.11.1 (Fc fusion)
chain: APEAAGGPSVFLFPPKPKDTLMISRTPEVTCVVVDVSHEDPEVKFNWYVDGVEVHNAKTKPREEQYNSTYRVVSVLTVLHQDWLNGKEYKCKVSNKALGAPIEKTISKAKGQPREPQVYTLPPSRDELTKNQVSLTCLVKGFYPSDIAVNWFSNGQIENNYKTTPPVLDSDGSFFLYSKLTVDKSRWQQGNLFACEVMHEALHNHYTYKLLSLSPGK
notes: P329G+LALA
Kd [1]: 10 µM

B3: 42.8.95 (Fc fusion)
chain: B1 chain with N150E, N154E, G155A, Q156S, I157K, E158L, N159T
notes: bivalent; P329G+LALA
Kd [2]: 23.1 µM | Kd [1]: 4.13 µM

B4: 42.8.94 (Fc fusion)
chain: B1 chain with N150E, N154E, G155A, Q156S, I157K, E158L
notes: bivalent; P329G+LALA
Kd [2]: 22.2 µM | Kd [1]: 4.07 µM

B6: 42.8.151 (Fc fusion)
chain: B1 chain with N150E, S153Y, N154D, Q156S, I157K
notes: bivalent; P329G+LALA
Kd [2]: 13.1 µM | Kd [1]: 1.51 µM

B10: 42.8.157 (Fc fusion)
chain: B1 chain with N150E, S153Y, N154D, G155A, I157K
notes: bivalent; P329G+LALA
Kd [2]: 15.5 µM | Kd [1]: 2.1 µM

B14: 42.8.150 (Fc fusion)
chain: B1 chain with N150E, S153Y, N154D, I157K, E158L, N159S
notes: bivalent; P329G+LALA
Kd [2]: 11.8 µM | Kd [1]: 2.65 µM

B15: 42.8.87 (Fc fusion)
chain: B1 chain with N150E, N154E, G155A, I157K, N159S
notes: bivalent; P329G+LALA
Kd [1]: 1.66 µM

B16: 42.8.64 (Fc fusion)
chain: B1 chain with N150E, N154D, G155D, I157K, E158L
notes: bivalent; P329G+LALA
Kd [1]: 5.69 µM

B17: 42.8.182 (Fc fusion)
chain: B1 chain with N150E, S153Y, N154E, I157K, N159T
notes: bivalent; P329G+LALA
Kd [2]: 14.4 µM | Kd [1]: 2.29 µM

B20: 42.8.113 (Fc fusion)
chain: B1 chain with N150E, S153Y, N154G, I157K, E158L, N159T
notes: bivalent; P329G+LALA
Kd [2]: 34.3 µM | Kd [1]: 1.61 µM

B23: 42.8.88 (Fc fusion)
chain: B1 chain with N150E, N154E, G155A, I157K, E158L
notes: bivalent; P329G+LALA
Kd [1]: 9.16 µM

B25: 42.8.16 (Fc fusion)
chain: B1 chain with N150E, N154G, G155A, I157K, E158L
notes: bivalent; P329G+LALA
Kd [1]: 7.81 µM

B26: 42.8.149 (Fc fusion)
chain: B1 chain with N150E, S153Y, N154D, I157K, E158L, N159T
notes: bivalent; P329G+LALA
Kd [2]: 16 µM | Kd [1]: 2.38 µM

B27: 42.8.159 (Fc fusion)
chain: B1 chain with N150E, S153Y, N154D, G155A, I157K, N159S
notes: bivalent; P329G+LALA
Kd [2]: 10.8 µM | Kd [1]: 1.32 µM

B28: 42.8.181 (Fc fusion)
chain: B1 chain with N150E, S153Y, N154E, I157K
notes: bivalent; P329G+LALA
Kd [2]: 12.1 µM | Kd [1]: 2.78 µM

B29: 42.8.57 (Fc fusion)
chain: B1 chain with N150E, N154D, G155A, Q156S, I157K, N159S
notes: bivalent; P329G+LALA
Kd [1]: 4.9 µM

B30: 42.8.163 (Fc fusion)
chain: B1 chain with N150E, S153Y, N154D, G155A, Q156S, I157K
notes: bivalent; P329G+LALA
Kd [2]: 7.82 µM | Kd [1]: 1.38 µM

B31: 42.8.77 (Fc fusion)
chain: B1 chain with N150E, N154E, I157K, E158L, N159T
notes: bivalent; P329G+LALA
Kd [1]: 8.1 µM

B34: 42.8.17 (Fc fusion)
chain: B1 chain with N150E, N154G, G155A, I157K, E158L, N159T
notes: bivalent; P329G+LALA
Kd [1]: 10.4 µM

B37: 6.5.11.7.122 (Fc fusion)
chain: B1 chain with N150F, I157R
notes: bivalent; P329G+LALA
Kd [1]: 4.6 µM

B38: 42.8.110 (Fc fusion)
chain: B1 chain with N150E, S153Y, N154G, I157K, N159T
notes: bivalent; P329G+LALA
Kd [2]: 15.8 µM | Kd [1]: 1.76 µM

B39: 42.8.114 (Fc fusion)
chain: B1 chain with N150E, S153Y, N154G, I157K, E158L, N159S
notes: bivalent; P329G+LALA
Kd [2]: 18.3 µM | Kd [1]: 1.81 µM

B40: 42.8.153 (Fc fusion)
chain: B1 chain with N150E, S153Y, N154D, Q156S, I157K, N159S
notes: bivalent; P329G+LALA
Kd [2]: 14.5 µM | Kd [1]: 1.84 µM

B41: 42.8.99 (Fc fusion)
chain: B1 chain with N150E, N154E, G155D, I157K, N159S
notes: bivalent; P329G+LALA
Kd [1]: 6.38 µM

B43: 42.8.56 (Fc fusion)
chain: B1 chain with N150E, N154D, G155A, Q156S, I157K, N159T
notes: bivalent; P329G+LALA
Kd [2]: 28.4 µM | Kd [1]: 4.83 µM

B44: 42.8.63 (Fc fusion)
chain: B1 chain with N150E, N154D, G155D, I157K, N159S
notes: bivalent; P329G+LALA
Kd [2]: 4.94 µM | Kd [1]: 4.19 µM

B45: 42.8.71 (Fc fusion)
chain: B1 chain with N150E, N154D, G155D, Q156S, I157K, E158L, N159T
notes: bivalent; P329G+LALA
Kd [2]: 12.9 µM | Kd [1]: 3 µM

B47: 6.5.11.5.42 (Fc fusion)
chain: B1 chain with N150Y, N154G, I157R
notes: P329G+LALA
Kd [1]: 2 µM

B48: 42.8.96 (Fc fusion)
chain: B1 chain with N150E, N154E, G155A, Q156S, I157K, E158L, N159S
notes: bivalent; P329G+LALA
Kd [2]: 21.9 µM | Kd [1]: 9.44 µM

B49: 42.8.156 (Fc fusion)
chain: B1 chain with N150E, S153Y, N154D, Q156S, I157K, E158L, N159S
notes: bivalent; P329G+LALA
Kd [2]: 13.3 µM | Kd [1]: 1.39 µM

B50: 42.8.55 (Fc fusion)
chain: B1 chain with N150E, N154D, G155A, Q156S, I157K
notes: bivalent; P329G+LALA
Kd [1]: 6.16 µM

B51: 42.8.109 (Fc fusion)
chain: B1 chain with N150E, S153Y, N154G, I157K
notes: bivalent; P329G+LALA
Kd [2]: 13.6 µM | Kd [1]: 2.02 µM

Now those with a lower Kd [1], led by results:

Kd [2]: 5.18 µM | Kd [1]: 0.454 µM
B2: 42.8.143 (Fc fusion)
chain: B1 chain with N150E, S153Y, N154G, G155D, Q156S, I157K, E158L, N159T
notes: bivalent; P329G+LALA

Kd [2]: 10.9 µM | Kd [1]: 1.02 µM
B5: 42.8.152 (Fc fusion)
chain: B1 chain with N150E, S153Y, N154D, Q156S, I157K, N159T
notes: bivalent; P329G+LALA

Kd [2]: 6.59 µM | Kd [1]: 0.502 µM
B7: 42.8.167 (Fc fusion)
chain: B1 chain with N150E, S153Y, N154D, G155A, Q156S, I157K, E158L, N159T
notes: bivalent; P329G+LALA

Kd [2]: 5.7 µM | Kd [1]: 0.531 µM
B8: 42.8.168 (Fc fusion)
chain: B1 chain with N150E, S153Y, N154D, G155A, Q156S, I157K, E158L, N159S
notes: bivalent; P329G+LALA

Kd [2]: 13.3 µM | Kd [1]: 1.14 µM
B9: 42.8.112 (Fc fusion)
chain: B1 chain with N150E, S153Y, N154G, I157K, E158L
notes: bivalent; P329G+LALA

Kd [2]: 15.8 µM | Kd [1]: 1.05 µM
B11: 42.8.175 (Fc fusion)
chain: B1 chain with N150E, S153Y, N154D, G155D, Q156S, I157K
notes: bivalent; P329G+LALA

Kd [2]: 5.45 µM | Kd [1]: 0.654 µM
B12: 42.8.128 (Fc fusion)
chain: B1 chain with N150E, S153Y, N154G, G155A, Q156S, I157K, N159T
notes: bivalent; P329G+LALA

Kd [2]: 9.14 µM | Kd [1]: 0.507 µM
B13: 42.2.1.2 (Fc fusion)
chain: B1 chain with N150E, S153Y, N154D, G155D, Q156S, I157K, E158L, N159T
notes: bivalent; P329G+LALA

Kd [2]: 3.87 µM | Kd [1]: 0.47 µM
B18: 42.8.144 (Fc fusion)
chain: B1 chain with N150E, S153Y, N154G, G155D, Q156S, I157K, E158L, N159S
notes: bivalent; P329G+LALA

Kd [1]: 0.795 µM
B19: 42.8.172 (Fc fusion)
chain: B1 chain with N150E, S153Y, N154D, G155D, I157K, E158L
notes: bivalent; P329G+LALA

Kd [2]: 4.29 µM | Kd [1]: 0.867 µM
B21: 42.8.118 (Fc fusion)
chain: B1 chain with N150E, S153Y, N154G, Q156S, I157K, E158L
notes: bivalent; P329G+LALA

Kd [2]: 6.1 µM | Kd [1]: 0.85 µM
B22: 42.8.139 (Fc fusion)
chain: B1 chain with N150E, S153Y, N154G, G155D, Q156S, I157K
notes: bivalent; P329G+LALA

Kd [2]: 6.72 µM | Kd [1]: 0.603 µM
B24: 42.8.173 (Fc fusion)
chain: B1 chain with N150E, S153Y, N154D, G155D, I157K, E158L, N159T
notes: bivalent; P329G+LALA

Kd [2]: 23.2 µM | Kd [1]: 1.19 µM
B32: 42.8.162 (Fc fusion)
chain: B1 chain with N150E, S153Y, N154D, G155A, I157K, E158L, N159S
notes: bivalent; P329G+LALA

Kd [2]: 5 µM | Kd [1]: 0.855 µM
B33: 42.8.166 (Fc fusion)
chain: B1 chain with N150E, S153Y, N154D, G155A, Q156S, I157K, E158L
notes: bivalent; P329G+LALA

Kd [2]: 3.04 µM | Kd [1]: 0.633 µM
B35: 42.8.127 (Fc fusion)
chain: B1 chain with N150E, S153Y, N154G, G155A, Q156S, I157K
notes: bivalent; P329G+LALA

Kd [2]: 2 µM | Kd [1]: 0.22 µM
B36: 42.2.3-1H (Fc fusion)
chain: B1 chain with N150E, S153Y, N154G, G155N, Q156A, I157K, N159T
notes: P329G+LALA

Kd [2]: 12.6 µM | Kd [1]: 1.18 µM
B42: 42.8.137 (Fc fusion)
chain: B1 chain with N150E, S153Y, N154G, G155D, I157K, E158L, N159T
notes: bivalent; P329G+LALA

Kd [2]: 7.78 µM | Kd [1]: 0.726 µM
B46: 42.8.174 (Fc fusion)
chain: B1 chain with N150E, S153Y, N154D, G155D, I157K, E158L, N159S
notes: bivalent; P329G+LALA
